Read-outs that look alike come from different tables or passages of the source. The star is where a group is joined. Biotin = O=C1N[C@H]2[C@H](CS[C@H]2CCCCC(=O)*)N1
T1: biotinylated His6 peptide (bio-EGGGSHHHHHH-COOH) (synthetic peptide, SMILES …)
T1 construct: spacer EGGGS and His6; Held on streptavidin biosensors by its biotin; source: synthetic peptide (PSSM-8 peptide synthesizer)
T1 chain: Biotin-EGGGSHHHHHH-OH

T2: His6 peptide (antigen of the fluorescence assays) (synthetic peptide)
T2 construct: His6; The materials name only the biotinylated His6 peptide as synthesised; it may be the same peptide as m17
T2 chain: HHHHHH


What was measured:
[1] = target: T1, biotinylated His6 peptide …; assay: BLI; biotinylated His6 peptide (100 nM) loaded on streptavidin biosensors; unlabeled protein or Q-body in two-fold dilutions in Kinetic buffer (phosphate, 150 mM NaCl, 0.002% Tween20, 0.1% BSA, pH 7.4); global fit, 1:1 model; Octet K2
[2] = target: T2, His6 peptide (antigen of the …); assay: other fluorescence titration; Q-body de-quenching in solution with His6 peptide at varied concentrations, PBST, plate reader; EC50 from a four-parameter logistic fit; conditions: both partners purified
[3] = target: anti-SARS-CoV-2 VHH nanobody tagged with a hinge, 3xFLAG and C-terminal His tags; assay: other fluorescence titration

| Binder | Kd [1] [nM] | koff [1] [s⁻¹] | kon [1] [M⁻¹ s⁻¹] | Kd ([1]; both partners purified) [nM] | koff ([1]; both partners purified) [s⁻¹] | kon ([1]; both partners purified) [M⁻¹ s⁻¹] | EC50 [2] [nM] | EC50 [3] [nM] | Kd ([1]; record 2) [nM] |
| --- | --- | --- | --- | --- | --- | --- | --- | --- | --- |
| anti-His scFv 3D5 WW variant (scFv, V domains shown) VH: QVQLQQSGPEDVKPGASVKISCKASGYTFTDWWMNWVKQSPGKGLEWIGDINPNNGGTSYNQKFKGRATLTVDKSSSTAYMELRSLTSEDSSVYYCESQSGAYWGQGTTVTVSA VL: DILMTQTPSSLPVSLGDQASISCRSSQSIVHSNGNTYLEWYLQKPGQSPKLLIYKVSNRFSGVPDRFSGSGSGTDFTLKISRVEAEDLGVYYCFQGSHVPFTFGSGTKLEIK | 2.88 | 0.000835 | 290000 | – | – | – | – | – | – |
| anti-His Fab 3D5 (wild-type) (Fab, V domains shown, VH of antibody 3D5; numbers count on: Kabat numbering of the heavy chain; CH1 of the vector pUQ2 (Fd = VH-CH1); VL of antibody 3D5; CL of the vector pUQ2 (Lc = VL-CL); Linker-less pUQ2 (3D5): the (GGGS)4 linker between Cys-tag and VH was removed; His6 is followed by myc on the heavy chain; also called wild-type Fab; source: E. coli SHuffle T7 Express with pGro7, purified (Talon IMAC); not shown: …) VH: QVQLQQSGPEDVKPGASVKISCKASGYTFTDYYMNWVKQSPGKGLEWIGDINPNNGGTSYNQKFKGRATLTVDKSSSTAYMELRSLTSEDSSVYYCESQSGAYWGQGTTVTVSA VL: DILMTQTPSSLPVSLGDQASISCRSSQSIVHSNGNTYLEWYLQKPGQSPKLLIYKVSNRFSGVPDRFSGSGSGTDFTLKISRVEAEDLGVYYCFQGSHVPFTFGSGTKLEIK | – | – | – | 3.62 | 9.93e-05 | 27400 | – | – | – |
| 5-TAMRA C6 maleimide double-labeled wild-type Fab 3D5 Q-body (Fab, V domains shown, VH of antibody 3D5, as in m7; CH1 of the vector pUQ2, as in m7; VL of antibody 3D5, as the light chain of m7; CL of the vector pUQ2, as the light chain of m7; m7 labelled with two dyes; also called Wild-type TAMRA; source: E. coli SHuffle T7 Express with pGro7, purified (Talon IMAC), labelled, purified (anti-FLAG M2 beads, G-25); not shown: Cys-tag, N-terminal, kept; His6, C-terminal, kept; myc, …) VH: QVQLQQSGPEDVKPGASVKISCKASGYTFTDYYMNWVKQSPGKGLEWIGDINPNNGGTSYNQKFKGRATLTVDKSSSTAYMELRSLTSEDSSVYYCESQSGAYWGQGTTVTVSA VL: DILMTQTPSSLPVSLGDQASISCRSSQSIVHSNGNTYLEWYLQKPGQSPKLLIYKVSNRFSGVPDRFSGSGSGTDFTLKISRVEAEDLGVYYCFQGSHVPFTFGSGTKLEIK | – | – | – | 3.19 | 0.000672 | 210000 | 132000 ± 34000 | – | – |
| anti-His Fab 3D5 WW variant (Fab, V domains shown) VH: QVQLQQSGPEDVKPGASVKISCKASGYTFTDWWMNWVKQSPGKGLEWIGDINPNNGGTSYNQKFKGRATLTVDKSSSTAYMELRSLTSEDSSVYYCESQSGAYWGQGTTVTVSA VL: DILMTQTPSSLPVSLGDQASISCRSSQSIVHSNGNTYLEWYLQKPGQSPKLLIYKVSNRFSGVPDRFSGSGSGTDFTLKISRVEAEDLGVYYCFQGSHVPFTFGSGTKLEIK | 0.17 | 2.27e-05 | 132000 | – | – | – | – | – | – |
| 5-TAMRA C6 maleimide double-labeled YW Fab 3D5 Q-body (Fab, V domains shown, VH of antibody 3D5, as the VH of m7 with the stated change; numbers count on: Kabat numbering of the heavy chain; CH1 of the vector pUQ2, as in m7; VL of antibody 3D5, as the light chain of m7; CL of the vector pUQ2, as the light chain of m7; m9 labelled with two dyes; also called YW TAMRA; source: E. coli SHuffle T7 Express with pGro7, purified (Talon IMAC), labelled, purified (anti-FLAG M2 …)) VH: QVQLQQSGPEDVKPGASVKISCKASGYTFTDYWMNWVKQSPGKGLEWIGDINPNNGGTSYNQKFKGRATLTVDKSSSTAYMELRSLTSEDSSVYYCESQSGAYWGQGTTVTVSA VL: DILMTQTPSSLPVSLGDQASISCRSSQSIVHSNGNTYLEWYLQKPGQSPKLLIYKVSNRFSGVPDRFSGSGSGTDFTLKISRVEAEDLGVYYCFQGSHVPFTFGSGTKLEIK | – | – | – | 1.31 | 0.000512 | 392000 | 54700 ± 9500 | 11100 | – |
| anti-His scFv 3D5 (wild-type) (scFv, V domains shown, VH of antibody 3D5 (anti-C-terminal His tag); numbers count on: Kabat numbering of the heavy chain; linker between VH and VL of the VH-VL type scFv (synthesised gene in pEX-K4J2-1KTR); VL of antibody 3D5; VH-VL order, vector pSQ (3D5); also called wild-type scFv; source: E. coli SHuffle T7 Express with pGro7, purified (Talon IMAC); not shown: Cys-tag, N-terminal, kept; His6, C-terminal, kept; …) VH: QVQLQQSGPEDVKPGASVKISCKASGYTFTDYYMNWVKQSPGKGLEWIGDINPNNGGTSYNQKFKGRATLTVDKSSSTAYMELRSLTSEDSSVYYCESQSGAYWGQGTTVTVSA VL: DILMTQTPSSLPVSLGDQASISCRSSQSIVHSNGNTYLEWYLQKPGQSPKLLIYKVSNRFSGVPDRFSGSGSGTDFTLKISRVEAEDLGVYYCFQGSHVPFTFGSGTKLEIK | – | – | – | 5.03 | 0.000425 | 84500 | – | – | – |
| ATTO520-C2 maleimide double-labeled YW Fab 3D5 Q-body (Fab, V domains shown, VH of antibody 3D5, as the VH of m7 with the stated change; numbers count on: Kabat numbering of the heavy chain; CH1 of the vector pUQ2, as in m7; VL of antibody 3D5, as the light chain of m7; CL of the vector pUQ2, as the light chain of m7; m9 labelled with two ATTO520 dyes; also called YW ATTO520; YW-ATTO520; source: E. coli SHuffle T7 Express with pGro7, purified (Talon IMAC), labelled, …) VH: QVQLQQSGPEDVKPGASVKISCKASGYTFTDYWMNWVKQSPGKGLEWIGDINPNNGGTSYNQKFKGRATLTVDKSSSTAYMELRSLTSEDSSVYYCESQSGAYWGQGTTVTVSA VL: DILMTQTPSSLPVSLGDQASISCRSSQSIVHSNGNTYLEWYLQKPGQSPKLLIYKVSNRFSGVPDRFSGSGSGTDFTLKISRVEAEDLGVYYCFQGSHVPFTFGSGTKLEIK | – | – | – | – | – | – | 6100 ± 1400 | 3000 | – |
| ATTO520-C2 maleimide double-labeled wild-type Fab 3D5 Q-body (Fab, V domains shown, VH of antibody 3D5, as in m7; CH1 of the vector pUQ2, as in m7; VL of antibody 3D5, as the light chain of m7; CL of the vector pUQ2, as the light chain of m7; m7 labelled with two ATTO520 dyes; also called Wild-type ATTO520; source: E. coli SHuffle T7 Express with pGro7, purified (Talon IMAC), labelled, purified (anti-FLAG M2 beads, G-25); not shown: Cys-tag, N-terminal, kept; His6, C-terminal, …) VH: QVQLQQSGPEDVKPGASVKISCKASGYTFTDYYMNWVKQSPGKGLEWIGDINPNNGGTSYNQKFKGRATLTVDKSSSTAYMELRSLTSEDSSVYYCESQSGAYWGQGTTVTVSA VL: DILMTQTPSSLPVSLGDQASISCRSSQSIVHSNGNTYLEWYLQKPGQSPKLLIYKVSNRFSGVPDRFSGSGSGTDFTLKISRVEAEDLGVYYCFQGSHVPFTFGSGTKLEIK | – | – | – | – | – | – | 13800 ± 5100 | – | – |

The next lines start with the values.

| Kd [1] [nM] | koff [1] [s⁻¹] | kon [1] [M⁻¹ s⁻¹] | Kd ([1]; both partners purified) [nM] | koff ([1]; both partners purified) [s⁻¹] | kon ([1]; both partners purified) [M⁻¹ s⁻¹] | EC50 [2] [nM] | EC50 [3] [nM] | Kd ([1]; record 2) [nM] | Binder |
| --- | --- | --- | --- | --- | --- | --- | --- | --- | --- |
| – | – | – | 0.76 | 0.000105 | 139000 | – | – | – | anti-His Fab 3D5 YW variant (Fab, V domains shown, VH of antibody 3D5, as the VH of m7 with the stated change; numbers count on: Kabat numbering of the heavy chain; CH1 of the vector pUQ2, as in m7; VL of antibody 3D5, as the light chain of m7; CL of the vector pUQ2, as the light chain of m7; YW read as Tyr kept at 32H and Trp at 33H; source: E. coli SHuffle T7 Express with pGro7, purified (Talon IMAC); not shown: Cys-tag, N-terminal, kept; His6, …) VH: QVQLQQSGPEDVKPGASVKISCKASGYTFTDYWMNWVKQSPGKGLEWIGDINPNNGGTSYNQKFKGRATLTVDKSSSTAYMELRSLTSEDSSVYYCESQSGAYWGQGTTVTVSA VL: DILMTQTPSSLPVSLGDQASISCRSSQSIVHSNGNTYLEWYLQKPGQSPKLLIYKVSNRFSGVPDRFSGSGSGTDFTLKISRVEAEDLGVYYCFQGSHVPFTFGSGTKLEIK |
| – | – | – | 26.8 | 0.00303 | 113000 | – | – | – | 5-TAMRA C6 maleimide-labeled wild-type scFv 3D5 Q-body (scFv, V domains shown, VH of antibody 3D5, as in m1; linker between VH and VL, as in m1; VL of antibody 3D5, as in m1; m1 labelled with one dye; also called wild-type scFv Q-body; source: E. coli SHuffle T7 Express with pGro7, purified (Talon IMAC), labelled, purified (anti-FLAG M2 beads, G-25); not shown: Cys-tag, N-terminal, kept; His6, C-terminal, kept; FLAG, C-terminal, kept) VH: QVQLQQSGPEDVKPGASVKISCKASGYTFTDYYMNWVKQSPGKGLEWIGDINPNNGGTSYNQKFKGRATLTVDKSSSTAYMELRSLTSEDSSVYYCESQSGAYWGQGTTVTVSA VL: DILMTQTPSSLPVSLGDQASISCRSSQSIVHSNGNTYLEWYLQKPGQSPKLLIYKVSNRFSGVPDRFSGSGSGTDFTLKISRVEAEDLGVYYCFQGSHVPFTFGSGTKLEIK |
| 1.72 | 0.000455 | 264000 | – | – | – | 89500 ± 25400 | 11500 | 3.19 | 5-TAMRA C6 maleimide double-labeled WW Fab 3D5 Q-body (Fab, V domains shown, VH of antibody 3D5, as the VH of m7 with the stated changes; numbers count on: Kabat numbering of the heavy chain; CH1 of the vector pUQ2, as in m7; VL of antibody 3D5, as the light chain of m7; CL of the vector pUQ2, as the light chain of m7; m8 labelled with two dyes; also called WW TAMRA; source: E. coli SHuffle T7 Express with pGro7, purified (Talon IMAC), labelled, purified (anti-FLAG M2 …)) VH: QVQLQQSGPEDVKPGASVKISCKASGYTFTDWWMNWVKQSPGKGLEWIGDINPNNGGTSYNQKFKGRATLTVDKSSSTAYMELRSLTSEDSSVYYCESQSGAYWGQGTTVTVSA VL: DILMTQTPSSLPVSLGDQASISCRSSQSIVHSNGNTYLEWYLQKPGQSPKLLIYKVSNRFSGVPDRFSGSGSGTDFTLKISRVEAEDLGVYYCFQGSHVPFTFGSGTKLEIK |
| – | – | – | – | – | – | 8800 ± 1300 | 10700 | – | ATTO520-C2 maleimide double-labeled WW Fab 3D5 Q-body (Fab, V domains shown, VH of antibody 3D5, as the VH of m7 with the stated changes; numbers count on: Kabat numbering of the heavy chain; CH1 of the vector pUQ2, as in m7; VL of antibody 3D5, as the light chain of m7; CL of the vector pUQ2, as the light chain of m7; m8 labelled with two ATTO520 dyes; also called WW ATTO520; WW-ATTO520; source: E. coli SHuffle T7 Express with pGro7, purified (Talon IMAC), labelled, …) VH: QVQLQQSGPEDVKPGASVKISCKASGYTFTDWWMNWVKQSPGKGLEWIGDINPNNGGTSYNQKFKGRATLTVDKSSSTAYMELRSLTSEDSSVYYCESQSGAYWGQGTTVTVSA VL: DILMTQTPSSLPVSLGDQASISCRSSQSIVHSNGNTYLEWYLQKPGQSPKLLIYKVSNRFSGVPDRFSGSGSGTDFTLKISRVEAEDLGVYYCFQGSHVPFTFGSGTKLEIK |

Reference: PMC8347774, “Construction of Fluorescent Immunosensor Quenchbody to Detect His-Tagged Recombinant Proteins Produced in Bioprocess” (Sensors (Basel, Switzerland), 2021)
